{"source": "patent US20220306759A1", "key": {"[1]": {"target": "human CD71 (transferrin receptor protein 1, TfR1) on human cell lines (human) (UniProt P02786)", "sequence (P02786 whole entry)": "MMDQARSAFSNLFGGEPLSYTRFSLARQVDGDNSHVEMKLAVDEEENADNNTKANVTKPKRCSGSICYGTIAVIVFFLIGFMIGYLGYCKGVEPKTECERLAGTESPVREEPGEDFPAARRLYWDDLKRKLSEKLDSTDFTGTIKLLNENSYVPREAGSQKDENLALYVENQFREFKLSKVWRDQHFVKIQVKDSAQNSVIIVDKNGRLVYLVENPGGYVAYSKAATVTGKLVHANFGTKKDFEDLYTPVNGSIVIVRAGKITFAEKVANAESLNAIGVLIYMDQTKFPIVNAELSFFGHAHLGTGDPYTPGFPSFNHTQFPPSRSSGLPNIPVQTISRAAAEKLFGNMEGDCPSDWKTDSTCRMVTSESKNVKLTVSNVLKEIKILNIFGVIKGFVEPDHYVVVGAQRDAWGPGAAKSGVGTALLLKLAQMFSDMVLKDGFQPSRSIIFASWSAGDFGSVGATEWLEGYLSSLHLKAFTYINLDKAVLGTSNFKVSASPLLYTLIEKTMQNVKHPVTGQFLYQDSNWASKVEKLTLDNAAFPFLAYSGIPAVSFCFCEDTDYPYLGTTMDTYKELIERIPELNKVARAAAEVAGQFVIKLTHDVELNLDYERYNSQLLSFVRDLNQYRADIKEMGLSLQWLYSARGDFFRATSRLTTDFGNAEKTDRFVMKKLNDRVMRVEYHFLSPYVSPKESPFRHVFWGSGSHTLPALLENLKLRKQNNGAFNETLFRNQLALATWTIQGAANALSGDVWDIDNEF", "experiment": "FACS on H292 cells; isotype ADC control"}, "[2]": {"target": "human CD71 (transferrin receptor protein 1, TfR1) on human cell lines (human) (UniProt P02786)", "experiment": "FACS on H292 cells; isotype ADC control, curve fit with Bmax of only 10.64 MFI"}}}
{"substance": "isotype ADC control (palivizumab-vc-MMAE) (antibody)", "values": [{"measurement": "Bmax (MFI)", "setting": "[1]", "value": 10.6, "unit": "MFI"}, {"measurement": "Kd", "setting": "[2]", "value": 57, "unit": "nM"}]}
